Measured values taken from article PMC6468676, “The Protein Tyrosine Phosphatase H1 PTPH1 Supports Proliferation of Keratinocytes and is a Target of the Human Papillomavirus Type 8 E6 Oncogene” (Cells, 2019).

Target: T1, FLAG-tagged HPV8E6 (E6 oncoprotein of human papillomavirus type 8), wild type (human papillomavirus type 8, UniProt P06428 1-155)
T1 sequence: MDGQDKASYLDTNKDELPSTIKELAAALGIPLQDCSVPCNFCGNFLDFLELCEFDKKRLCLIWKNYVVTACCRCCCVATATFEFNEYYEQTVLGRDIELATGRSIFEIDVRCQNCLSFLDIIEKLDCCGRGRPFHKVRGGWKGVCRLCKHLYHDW
Test: cell-based or functional assay

B1: Myc-tagged protein tyrosine phosphatase H1 (PTPH1), full length (enzyme, UniProt P26045 1-913, looked up)
chain: MTSRLRALGGRINNIRTSELPKEKTRSEVICSIHFLDGVVQTFKVTKQDTGQVLLDMVHNHLGVTEKEYFGLQHDDDSVDSPRWLEASKAIRKQLKGGFPCTLHFRVRFFIPDPNTLQQEQTRHLYFLQLKMDICEGRLTCPLNSAVVLASYAVQSHFGDYNSSIHHPGYLSDSHFIPDQNEDFLTKVESLHEQHSGLKQSEAESCYINIARTLDFYGVELHSGRDLHNLDLMIGIASAGVAVYRKYICTSFYPWVNILKISFKRKKFFIHQRQKQAESREHIVAFNMLNYRSCKNLWKSCVEHHTFFQAKKLLPQEKNVLSQYWTMGSRNTKKSVNNQYCKKVIGGMVWNPAMRRSLSVEHLETKSLPSRSPPITPNWRSPRLRHEIRKPRHSSADNLANEMTYITETEDVFYTYKGSLAPQDSDSEVSQNRSPHQESLSENNPAQSYLTQKSSSSVSPSSNAPGSCSPDGVDQQLLDDFHRVTKGGSTEDASQYYCDKNDNGDSYLVLIRITPDEDGKFGFNLKGGVDQKMPLVVSRINPESPADTCIPKLNEGDQIVLINGRDISEHTHDQVVMFIKASRESHSRELALVIRRRAVRSFADFKSEDELNQLFPEAIFPMCPEGGDTLEGSMAQLKKGLESGTVLIQFEQLYRKKPGLAITFAKLPQNLDKNRYKDVLPYDTTRVLLQGNEDYINASYVNMEIPAANLVNKYIATQGPLPHTCAQFWQVVWDQKLSLIVMLTTLTERGRTKCHQYWPDPPDVMNHGGFHIQCQSEDCTIAYVSREMLVTNTQTGEEHTVTHLQYVAWPDHGVPDDSSDFLEFVNYVRSLRVDSEPVLVHCSAGIGRTGVLVTMETAMCLTERNLPIYPLDIVRKMRDQRAMMVQTSSQYKFVCEAILRVYEEGLVQMLDPS
- Myc-PTPH1 phosphatase activity (Malachite Green PTP assay on precipitated Myc-PTPH1, two phospho-tyrosine peptides) upon co-expression of HPV8E6 compared to the empty FLAG control vector: 2.5 fold
